# Results as given in patent US20210380703A1 (RIGEL PHARMACEUTICALS, published 2021).
# Legend:
# Human ACVR2A = target: T1, Human ACVR2A (human, UniProt P27037 20-135, limits assumed); test: ELISA
# T1 construct: also called activin receptor, type II A
# How it was run: (§1)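 ELISA measured binding of ACVR2A-specific monoclonal antibodies to human and mouse ACVR2A. Biotinylated goat anti-human kappa light chain served as positive control and human Fc as negative control.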
# Mouse ACVR2A = Mouse ACVR2A (mouse, UniProt P27038 20-135, limits assumed); test: ELISA
# How it was run: as §1
# Goat anti-Human Kappa = target: T2, Goat anti-Human Kappa; test: ELISA, positive control
# T2 construct: Positive control of the ELISA; also called biotinylated goat anti-human kappa light chain
# How it was run: as §1
# Also: test concentration or dose not given here.
# T1 sequence (P27037 20-135 limits assumed): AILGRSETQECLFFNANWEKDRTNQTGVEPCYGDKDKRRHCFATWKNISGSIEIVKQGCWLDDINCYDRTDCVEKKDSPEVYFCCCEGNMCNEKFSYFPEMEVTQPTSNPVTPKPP
# Sequence of Mouse ACVR2A (P27038 20-135 limits assumed): as the sequence (P27037 20-135 limits assumed) above, with K20R, V73I counted along it
optical density (Human ACVR2A) [OD],optical density (Mouse ACVR2A) [OD],optical density (Goat anti-Human Kappa) [OD],Binder
2.11,2.31,3.65,"368_A07 (antibody, V domains shown) VH: EVQLLESGGGLVQPGGSLRLSCAASGFTFSSYSMNWVRQAPGKGLEWVAGINYNSGYTSYADSVKGRFTISRDNSKNTLYLQMNSLRAEDTAVYYCARSANWHDTHLDYWGQGTLVTVSS VL: DIQMTQSPSSLSASVGDRVTITCRASQSILTYLNWYQQKPGKAPKLVIYATTSRASGVPSRFSGSGSGTDFTLTISSLQPEDFATYYCQQSNELPLTFGGGTKVEIK"
2.8,2.96,3.49,"368_D11 (antibody, V domains shown) VH: EVQLLESGGGLVQPGGSLRLSCAASGFTFDDYGMNWVRQAPGKGLEWVSNINYNGGYKSYADSVKGRFTISRDNSKNTLYLQMNSLRAEDTAVYYCARSANWHDTALDYWGQGTLVTVSS VL: DIQMTQSPSSLSASVGDRVTITCRASQSILTYLNWYQQKPGKAPKLVIYAATSRASGVPSRFSGSGSGTDFTLTISSLQPEDFATYYCQQSYDLPLTFGGGTKVEIK"
2.57,2.85,3.74,"368_E01 (antibody, V domains shown) VH: EVQLLESGGGLVQPGGSLRLSCAASGFTFSSYSMNWVRQAPGKGLEWVASINYNSGYTGYADSVKGRFTISRDNSKNTLYLQMNSLRAEDTAVYYCARSANWHDTHLDYWGQGTLVTVSS VL: DIQMTQSPSSLSASVGDRVTITCRASQSILSYLNWYQQKPGKAPKLLIYAVTSRHSGVPSRFSGSGSGTDFTLTISSLQPEDFATYYCQQSYSLPLTFGGGTKVEIK"
2.06,2.34,3.16,"368_B06 (antibody, V domains shown) VH: EVQLLESGGGLVQPGGSLRLSCAASGFTFDSYGMHWVRQAPGKGLEWVSGINYNSGYTSYADSVKGRFTISRDNSKNTLYLQMNSLRAEDTAVYYCARSANWHDTALDYWGQGTLVTVSS VL: not shown"
1.91,2.06,3.13,"368_B07 (antibody, V domains shown) VH: EVQLLESGGGLVQPGGSLRLSCAASGFTFSDYSMNWVRQAPGKGLEWVSNINYNGGYKSYADSVKGRFTISRDNSKNTLYLQMNSLRAEDTAVYYCARSANWHDTALDYWGQGTLVTVSS VL: DIQMTQSPSSLSASVGDRVTITCRASQSIVSYLNWYQQKPGKAPKLLIYAATSLASGVPSRFSGSGSGTDFTLTISSLQPEDFATYYCQQSYSSPLTFGGGTKVEIK"
2.58,2.73,3.53,"368_F11 (antibody, V domains shown) VH: EVQLLESGGGLVQPGGSLRLSCAASGFTFSDYGMNWVRQAPGKGLEWVSGINYNGGYTSYADSVKGRFTISRDNSKNTLYLQMNSLRAEDTAVYYCARSANWHDTHLDYWGQGTLVTVSS VL: DIQMTQSPSSLSASVGDRVTITCRASQSIVSYVNWYQQKPGKAPKLVIYAATSRASGVPSRFSGSGSGTDFTLTISSLQPEDFATYYCQQSYNNPLTFGGGTKVEIK"
2.51,2.63,3.55,"368_A09 (antibody, V domains shown) VH: EVQLLESGGGLVQPGGSLRLSCAASGFTFDSYSMNWVRQAPGKGLEWVSGINYNGGYTSYADSVKGRFTISRDNSKNTLYLQMNSLRAEDTAVYYCARSANWHDTHLDYWGQGTLVTVSS VL: DIQMTQSPSSLSASVGDRVTITCRASQSILSYVNWYQQKPGKAPKLLIYAVTSRASGVPSRFSGSGSGTDFTLTISSLQPEDFATYYCQQSYDSPLTFGGGTKVEIK"
2.61,2.59,3.71,"368_B01 (antibody, V domains shown) VH: EVQLLESGGGLVQPGGSLRLSCAASGFTFSSYGMNWVRQAPGKGLEWVSGINYNSGYKSYADSVKGRFTISRDNSKNTLYLQMNSLRAEDTAVYYCARSANWHDTALDYWGQGTLVTVSS VL: DIQMTQSPSSLSASVGDRVTITCRASQSISSYLNWYQQKPGKAPKLLIYAATSRASGVPSRFSGSGSGTDFTLTISSLQPEDFATYYCQQSYETPLTFGGGTKVEIK"
2.65,2.82,3.62,"368_G01 (antibody, V domains shown) VH: EVQLLESGGGLVQPGGSLRLSCAASGFTFSDYGMHWVRQAPGKGLEWVASINYNSGYTSYADSVKGRFTISRDNSKNTLYLQMNSLRAEDTAVYYCARSANWHDTALDYWGQGTLVTVSS VL: DIQMTQSPSSLSASVGDRVTITCRASQSILTYLNWYQQKPGKAPKLVIYAATSRASGVPSRFSGSGSGTDFTLTISSLQPEDFATYYCQQSYNLPLTFGGGTKVEIK"
2.75,2.97,3.65,"368_D01 (antibody, V domains shown) VH: EVQLLESGGGLVQPGGSLRLSCAASGFTFSSYGMHWVRQAPGKGLEWVANINYNGGYTSYADSVKGRFTISRDNSKNTLYLQMNSLRAEDTAVYYCARSANWHDTALDYWGQGTLVTVSS VL: DIQMTQSPSSLSASVGDRVTITCRASQSILSYLNWYQQKPGKAPKLVIYAATSRASGVPSRFSGSGSGTDFTLTISSLQPEDFATYYCQQSDSTPLTFGGGTKVEIK"
2.46,2.7,3.67,"368_D04 (antibody, V domains shown) VH: EVQLLESGGGLVQPGGSLRLSCAASGFTFSSYGMNWVRQAPGKGLEWVSGINYNGGYKSYADSVKGRFTISRDNSKNTLYLQMNSLRAEDTAVYYCARSANWHDTALDYWGQGTLVTVSS VL: DIQMTQSPSSLSASVGDRVTITCRASQSISTYVNWYQQKPGKAPKLVIYAVTSRHSGVPSRFSGSGSGTDFTLTISSLQPEDFATYYCQQSYDSPLTFGGGTKVEIK"
2.33,2.34,3.5,"368_E06 (antibody, V domains shown) VH: EVQLLESGGGLVQPGGSLRLSCAASGFTFSDYGMHWVRQAPGKGLEWVSGINYNGGYTGYADSVKGRFTISRDNSKNTLYLQMNSLRAEDTAVYYCARSANWHDTALDYWGQGTLVTVSS VL: DIQMTQSPSSLSASVGDRVTITCRASQSILSYLNWYQQKPGKAPKLVIYGATSRASGVPSRFSGSGSGTDFTLTISSLQPEDFATYYCQQSYDSPLTFGGGTKVEIK"
2.5,2.79,3.68,"368_E02 (antibody, V domains shown) VH: EVQLLESGGGLVQPGGSLRLSCAASGFTFDSYSMNWVRQAPGKGLEWVAGINYNSGYTSYADSVKGRFTISRDNSKNTLYLQMNSLRAEDTAVYYCARSANWHDTHLDYWGQGTLVTVSS VL: DIQMTQSPSSLSASVGDRVTITCRASQSILTYLNWYQQKPGKAPKLLIYAATSRASGVPSRFSGSGSGTDFTLTISSLQPEDFATYYCQQSYSSPLTFGGGTKVEIK"
1.82,2.02,3.36,"368_C05 (antibody, V domains shown) VH: EVQLLESGGGLVQPGGSLRLSCAASGFTFDSYGMNWVRQAPGKGLEWVSGINYNSGYTSYADSVKGRFTISRDNSKNTLYLQMNSLRAEDTAVYYCARSANWHDTALDYWGQGTLVTVSS VL: DIQMTQSPSSLSASVGDRVTITCRASQSILSYLNWYQQKPGKAPKLVIYAATSRASGVPSRFSGSGSGTDFTLTISSLQPEDFATYYCQQSDSNPLTFGGGTKVEIK"
2.86,2.87,3.38,"368_D05 (antibody, V domains shown) VH: EVQLLESGGGLVQPGGSLRLSCAASGFTFSSYSMNWVRQAPGKGLEWVSGINYNGGYTSYADSVKGRFTISRDNSKNTLYLQMNSLRAEDTAVYYCARSANWHDTALDYWGQGTLVTVSS VL: DIQMTQSPSSLSASVGDRVTITCRASQSILTYLNWYQQKPGKAPKLVIYAATSRASGVPSRFSGSGSGTDFTLTISSLQPEDFATYYCQQSDDSPLTFGGGTKVEIK"
3.08,3.23,3.48,"368_E04 (antibody, V domains shown) VH: EVQLLESGGGLVQPGGSLRLSCAASGFTFSSYSMNWVRQAPGKGLEWVANINYNSGYTGYADSVKGRFTISRDNSKNTLYLQMNSLRAEDTAVYYCARSANWHDTALDYWGQGTLVTVSS VL: DIQMTQSPSSLSASVGDRVTITCRASQSILSYVNWYQQKPGKAPKLLIYAATSRHSGVPSRFSGSGSGTDFTLTISSLQPEDFATYYCQQSYDNPLTFGGGTKVEIK"
2.35,2.6,3.6,"368_F03 (antibody, V domains shown) VH: EVQLLESGGGLVQPGGSLRLSCAASGFTFDSYSMNWVRQAPGKGLEWVAGINYNSGYTGYADSVKGRFTISRDNSKNTLYLQMNSLRAEDTAVYYCAKSANWHDTALDYWGQGTLVTVSS VL: DIQMTQSPSSLSASVGDRVTITCRASQSIISYLNWYQQKPGKAPKLVIYAATSRHSGVPSRFSGSGSGTDFTLTISSLQPEDFATYYCQQSYDSPLTFGGGTKVEIK"
1.07,1.17,3.45,"368_E07 (antibody, V domains shown) VH: EVQLLESGGGLVQPGGSLRLSCAASGFTFSSYGMNWVRQAPGKGLEWVAGINYNGGYTSYADSVKGRFTISRDNSKNTLYLQMNSLRAEDTAVYYCAKSANWHDTALDYWGQGTLVTVSS VL: DIQMTQSPSSLSASVGDRVTITCRASQSILSYLNWYQQKPGKAPKLLIYAVTSRASGVPSRFSGSGSGTDFTLTISSLQPEDFATYYCQQSYENPLTFGGGTKVEIK"
2.46,2.54,3.52,"368_G12 (antibody, V domains shown) VH: EVQLLESGGGLVQPGGSLRLSCAASGFTFSSYGMNWVRQAPGKGLEWVASINYNSGYTGYADSVKGRFTISRDNSKNTLYLQMNSLRAEDTAVYYCARSANWHDTALDYWGQGTLVTVSS VL: DIQMTQSPSSLSASVGDRVTITCRASQSISSYVNWYQQKPGKAPKLVIYAVTSRASGVPSRFSGSGSGTDFTLTISSLQPEDFATYYCQQSYETPLTFGGGTKVEIK"
